The supplement of paper PMC5998384

How the values were obtained:
HeLa Kyoto [1] = experiment: melting temperature (median over replicates), in situ; higher = more thermally stable
HeLa Kyoto [2] = experiment: solubility in G1/S (NP-40 vs SDS abundance) (log2 ratio); higher = more soluble; details: cell cycle stage: G1/S
HeLa Kyoto [3] = experiment: solubility change mitosis vs G1/S (difference of NP-40 vs SDS log2 ratios) (log2 ratio difference); higher = more soluble in mitosis
HeLa Kyoto [4] = experiment: thermal stability score vs G1/S (z-score of summed log2 fold changes over temperatures); higher = more thermally stable than in G1/S
[5] = cell cycle stage: early G1 (4.5 h after nocodazole release)
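For melting temperature (median over replicates), in situ in this document: HeLa Kyoto cells synchronized by double thymidine or nocodazole block, proteins quantified by TMT10plex mass spectrometry, three independent biological replicates.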
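For solubility change mitosis vs G1/S (difference of NP-40 vs SDS log2 ratios) in this document: synchronized HeLa Kyoto cells (double thymidine block for G1/S, nocodazole release for mitosis), protein amounts in NP-40 versus SDS lysates quantified by mass spectrometry, three biological replicates.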
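For solubility in G1/S (NP-40 vs SDS abundance) in this document: HeLa Kyoto cells arrested at G1/S by double thymidine block, proteins quantified by TMT10plex mass spectrometry in mild NP-40 versus SDS extracts, three biological replicates.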
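For thermal stability score vs G1/S (z-score of summed log2 fold changes over temperatures) in this document: synchronized HeLa Kyoto cells, proteins quantified by TMT10plex mass spectrometry, three biological replicates, mitosis taken 0.5 h after nocodazole release, G1/S directly after double thymidine block.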

Row | Substance | melting temperature (HeLa Kyoto [1]; cell cycle stage: G1/S) [°C] | melting temperature (HeLa Kyoto [1]; cell cycle stage: mitosis) [°C] | solubility in G1/S (log2) (HeLa Kyoto [2]) | solubility change mitosis (log2) (HeLa Kyoto [3]) | thermal stability score (HeLa Kyoto [4]; [5]) | thermal stability score (HeLa Kyoto [4]; cell cycle stage: mitosis)
1 | MSAPLDAALHALQEEQARLKMRLWDLQQLRKELGDSPKDKVPFSVPKIPLVFRGHTQQDPEVPKSLVSNLRIHCPLLAGSALITFDDPKVAEQVLQQKEHTINMEECRLRVQVQPLELPMVTTIQMSSQLSGRRVLVTGFPASLRLSEEELLDKLEIFFGKTRNGGGDVDVRELLPGSVMLGFARDGVAQRLCQIGQFTVPLGGQQVPLRVSPYVNGEIQKAEIRSQPVPRSVLVLNIPDILDGPELHDVLEIHFQKPTRGGGEVEALTVVPQGQQGLAVFTSESG [IFI35] | 54.6 | 55.2 | 0.654 | -0.0643 | -1.43 | -2.41
2 | ZFYVE16 | 53.2 | 52.7 | -0.0282 | -0.171 | -2.53 | -1.48
3 | MPLKWKTSSPAIWKFPVPVLKTSRSTPLSPAYISLVEEEDQHMKLSLGGSEMGLSSHLQSSKAGPTRIFTSNTHSSVVLQGFDQLRLEGLLCDVTLMPGDTDDAFPVHRVMMASASDYFKAMFTGGMKEQDLMCIKLHGVSKVGLRKIIDFIYTAKLSLNMDNLQDTLEAASFLQILPVLDFCKVFLISGVTLDNCVEVGRIANTYNLTEVDKYVNSFVLKNFPALLSTGEFLKLPFERLAFVLSSNSLKHCTELELFKATCRWLRLEEPRMDFAAKLMKNIRFPLMTPQELINYVQTVDFMRTDNTCVNLLLEASNYQMMPYMQPVMQSDRTAIRSDTTHLVTLGGVLRQQLVVSKELRMYDEKAHEWKSLAPMDAPRYQHGIAVIGNFLYVVGGQSNYDTKGKTAVDTVFRFDPRYNKWMQVASLNEKRTFFHLSALKGYLYAVGGRNAAGELPTVECYNPRTNEWTYVAKMSEPHYGHAGTVYGGVMYISGGITHDTFQKELMCFDPDTDKWIQKAPMTTVRGLHCMCTVGERLYVIGGNHFRGTSDYDDVLSCEYYSPILDQWTPIAAMLRGQSDVGVAVFENKIYVVGGYSWNNRCMVEIVQKYDPDKDEWHKVFDLPESLGGIRACTLTVFPPEETTPSPSRESPLSAP [KLHL13] | 52.2 | 50.4 | -0.13 | -0.128 | -0.01 | 0.108
4 | MALRPGAGSGGGGAAGAGAGSAGGGGFMFPVAGGIRPPQAGLMPMQQQGFPMVSVMQPNMQGIMGMNYSSQMSQGPIAMQAGIPMGPMPAAGMPYLGQAPFLGMRPPGPQYTPDMQKQFAEEQQKRFEQQQKLLEEERKRRQFEEQKQKLRLLSSVKPKTGEKSRDDALEAIKGNLDGFSRDAKMHPTPASHPKKPGPSLEEKFLVSCDISTSGQEQIKLNTSEVGHKALGPGSSKKYPSLMASNGVAVDGCVSGTTTAEAENTSDQNLSIEESGVGVFPSQDPAQPRMPPWIYNESLVPDAYKKILETTMTPTGIDTAKLYPILMSSGLPRETLGQIWALANRTTPGKLTKEELYTVLAMIAVTQRGVPAMSPDALNQFPAAPIPTLSGFSMTLPTPVSQPTVIPSGPAGSMPLSLGQPVMGINLVGPVGGAAAQASSGFIPTYPANQVVKPEEDDFQDFQDASKSGSLDDSFSDFQELPASSKTSNSQHGNSAPSLLMPLPGTKALPSMDKYAVFKGIAADKSSENTVPPGDPGDKYSAFRELEQTAENKPLGESFAEFRSAGTDDGFTDFKTADSVSPLEPPTKDKTFPPSFPSGTIQQKQQTQVKNPLNLADLDMFSSVNCSSEKPLSFSAVFSTSKSVSTPQSTGSAATMTALAATKTSSLADDFGEFSLFGEYSGLAPVGEQDDFADFMAFSNSSISSEQKPDDKYDALKEEASPVPLTSNVGSTVKGGQNSTAASTKYDVFRQLSLEGSGLGVEDLKDNTPSGKSDDDFADFHSSKFSSINSDKSLGEKAVAFRHTKEDSASVKSLDLPSIGGSSVGKEDSEDALSVQFDMKLADVGGDLKHVMSDSSLDLPTVSGQHPPAADIEDLKYAAFGSYSSNFAVSTLTSYDWSDRDDATQGRKLSPFVLSAGSGSPSATSILQKKETSFGSSENITMTSLSKVTTFVSEDALPETTFPALASFKDTIPQTSEQKEYENRDYKDFTKQDLPTAERSQEATCPSPASSGASQETPNECSDDFGEFQSEKPKISKFDFLVATSQSKMKSSEEMIKSELATFDLSVQGSHKRSLSLGDKEISRSSPSPALEQPFRDRSNTLNEKPALPVIRDKYKDLTGEVEENERYAYEWQRCLGSALNVIKKANDTLNGISSSSVCTEVIQSAQGMEYLLGVVEVYRVTKRVELGIKATAVCSEKLQQLLKDIDKVWNNLIGFMSLATLTPDENSLDFSSCMLRPGIKNAQELACGVCLLNVDSRSRKEEKPAEEHPKKAFNSETDSFKLAYGGHQYHASCANFWINCVEPKPPGLVLPDLL [SYNRG] | 49.9 | 49.7 | 0.0486 | -0.164 | 0.188 | 1.39
5 | MGKRDRADRDKKKSRKRHYEDEEDDEEDAPGNDPQEAVPSAAGKQVDESGTKVDEYGAKDYRLQMPLKDDHTSRPLWVAPDGHIFLEAFSPVYKYAQDFLVAIAEPVCRPTHVHEYKLTAYSLYAAVSVGLQTSDITEYLRKLSKTGVPDGIMQFIKLCTVSYGKVKLVLKHNRYFVESCHPDVIQHLLQDPVIRECRLRNSEGEATELITETFTSKSAISKTAESSGGPSTSRVTDPQGKSDIPMDLFDFYEQMDKDEEEEEETQTVSFEVKQEMIEELQKRCIHLEYPLLAEYDFRNDSVNPDINIDLKPTAVLRPYQEKSLRKMFGNGRARSGVIVLPCGAGKSLVGVTAACTVRKRCLVLGNSAVSVEQWKAQFKMWSTIDDSQICRFTSDAKDKPIGCSVAISTYSMLGHTTKRSWEAERVMEWLKTQEWGLMILDEVHTIPAKMFRRVLTIVQAHCKLGLTATLVREDDKIVDLNFLIGPKLYEANWMELQNNGYIAKVQCAEVWCPMSPEFYREYVAIKTKKRILLYTMNPNKFRACQFLIKFHERRNDKIIVFADNVFALKEYAIRLNKPYIYGPTSQGERMQILQNFKHNPKINTIFISKVGDTSFDLPEANVLIQISSHGGSRRQEAQRLGRVLRAKKGMVAEEYNAFFYSLVSQDTQEMAYSTKRQRFLVDQGYSFKVITKLAGMEEEDLAFSTKEEQQQLLQKVLAATDLDAEEEVVAGEFGSRSSQASRRFGTMSSMSGADDTVYMEYHSSRSKAPSKHVHPLFKRFRK [ERCC3] | 47.9 | 49.6 | -0.561 | -0.0174 | 0.89 | 1.14
6 | MADKQISLPAKLINGGIAGLIGVTCVFPIDLAKTRLQNQQNGQRVYTSMSDCLIKTVRSEGYFGMYRGAAVNLTLVTPEKAIKLAANDFFRHQLSKDGQKLTLLKEMLAGCGAGTCQVIVTTPMEMLKIQLQDAGRIAAQRKILAAQGQLSAQGGAQPSVEAPAAPRPTATQLTRDLLRSRGIAGLYKGLGATLLRDVPFSVVYFPLFANLNQLGRPASEEKSPFYVSFLAGCVAGSAAAVAVNPCDVVKTRLQSLQRGVNEDTYSGILDCARKILRHEGPSAFLKGAYCRALVIAPLFGIAQVVYFLGIAESLLGLLQDPQA [SLC25A22] | 56.1 | 55.4 | 0.299 | -0.111 | 0.207 | -1.95
